B1: TRAF-interacting protein with FHA domain-containing protein A (Homo sapiens), Q96CG3 (parent)
chain: MTSFEDADTEETVTCLQMTVYHPGQLQCGIFQSISFNREKLPSSEVVKFGRNSNICHYTFQDKQVSRVQFSLQLFKKFNSSVLSFEIKNMSKKTNLIVDSRELGYLNKMDLPYRCMVRFGEYQFLMEKEDGESLEFFETQFILSPRSLLQENNWPPHRPIPEYGTYSLCSSQSSSPTEMDENES
partner: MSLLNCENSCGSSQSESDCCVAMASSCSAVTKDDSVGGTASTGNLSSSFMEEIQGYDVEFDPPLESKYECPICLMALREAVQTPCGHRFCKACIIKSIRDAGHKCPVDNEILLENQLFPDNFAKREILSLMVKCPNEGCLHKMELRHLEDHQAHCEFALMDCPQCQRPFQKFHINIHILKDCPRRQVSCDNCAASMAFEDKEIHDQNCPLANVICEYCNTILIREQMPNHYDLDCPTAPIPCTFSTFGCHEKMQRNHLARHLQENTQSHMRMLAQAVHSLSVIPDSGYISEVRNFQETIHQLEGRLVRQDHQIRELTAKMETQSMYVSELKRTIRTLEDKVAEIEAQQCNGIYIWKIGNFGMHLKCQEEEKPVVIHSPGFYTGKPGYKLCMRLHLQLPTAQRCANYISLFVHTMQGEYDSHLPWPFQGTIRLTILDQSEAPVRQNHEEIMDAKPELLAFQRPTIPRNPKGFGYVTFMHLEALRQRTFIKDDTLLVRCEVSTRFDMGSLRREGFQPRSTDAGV

Variants of: B1
Conditions: with traf6_human TRAF6, Q9Y4K3

| effect of a mutation on the interaction | Variant |
| --- | --- |
| disrupting interaction strength | G50E;S66A |
| disrupting interaction strength | E178A |
| disrupting interaction strength | T9A |
